These results are taken from patent publication US20170082609A1.

Assay [1] has as its target CDHR3 Cys529→Tyr variant (human) (UniProt Q6ZTQ4). Kind of assay: cell-based or functional assay.
The target of assay [2] is CDHR3 Cys529→Tyr variant with Asn186→Ala (human) (UniProt Q6ZTQ4). Kind of assay: cell-based or functional assay.
The target of assay [3] is human cadherin-related family member 3 (CDHR3), wild-type (human) (UniProt Q6ZTQ4). Kind of assay: cell-based or functional assay.
For assay [4], the target named is CDHR3 Cys529→Tyr variant (human) (UniProt Q6ZTQ4). Kind of assay: virus bound to transfected HeLa cells 2 h p.i., viral RNA by qRT-PCR. In general terms: Real-time PCR tracks product formation cycle by cycle.
The target of assay [5] is CDHR3 Cys529→Tyr variant with Asn186→Ala (human) (UniProt Q6ZTQ4). Kind of assay: virus bound to transfected HeLa cells 2 h p.i., viral RNA by qRT-PCR, against CDHR3 Cys529→Tyr without the mutation.

In assay [1], “rhinovirus C15 (RV-C15), recombinant virus from the clinical isolate's infectious clone” yielded a progeny yield relative to the wild-type CDHR3 of 10 fold and a replication in HeLa-E8 cells (viral RNA from 2 h to 24 h post infection) greater than 2 log. Also, the replication in assay [2] was 70%. For the same substance, the replication (RV-C RNA compared to input) in assay [3] is 2 log. This substance returned a fold binding relative to the wild-type CDHR3 in assay [4] of 10 fold. In addition, the percent impairment of virus binding in assay [5] is greater than 70%.
